Laboratory results taken from publication PMC6262447.

Biological target: NADPH-dependent thioredoxin reductase from Methanosarcina mazei strain Gö1 (Methanosarcina mazei strain Gö1)
Test: SEC; Sephacryl S-300 gel filtration in 10 mM Tris-HCl pH 7.6, 100 mM NaCl, 2 mM 2-mercaptoethanol; column calibrated with the Bio-Rad Gel Filtration Standard; monomer to dimer

- stoichiometry N: 2
Substance: NADPH-dependent thioredoxin reductase from Methanosarcina mazei strain Gö1 (enzyme)
